{
  "source": "paper PMC8776730",
  "about": "(Nature Communications, 2022)",
  "key": {"[1]": {"assay": "Critical assembly concentration (CAC) by pyrene fluorescence probe", "type": "physicochemical", "text": "In order to study the molecular design and their assembly behavior, we modular designed and synthesized seven molecules (Table 1), which respectively were BIVA probe: M1 (mPEG-GPAKLVFFGC(IR783)GRGD); the non- FAP-α tailoring molecule: M2 (mPEG-AGGKLVFFGC(IR783)GRGD) scrambled response tailoring motif of Gly-Pro-Ala with Ala-Gly-Gly; the non-labeling molecule of M1: M3 (mPEG-GPAKLVFFGCGRGD) removed IR783 labeling; FAP-α tailoring residue of M1: R-M1 (AKLVFFGC(IR783)GRGD); the non-targeting molecule: M4 (mPEG-GPAKLVFFGC(IR783)GDTG) scrambled targeting tailoring motif of Arg-Gly-Asp with Asp-Thr-Gly; the non-labeling molecule of M2: M5 (mPEG-AGGKLVFFGCGRGD) removed IR783 labeling; FAP-α tailoring residue of M3: R-M3 (AKLVFFGCGRGD). All the synthesized procedure (Supplementary Fig. 1) and characterizations of these seven molecules can be found in SI (Supplementary Figs. 2–8). […] Without IR783 labeling, molecules of M3 and M5 decreased the CAC value in solution relative to M1 and M2, which could be attributed to the proximity of the steric hindrance of hydrophilic IR783 to the self-assembly motif (Supplementary Fig. 9). […] The CAC was quantitatively calculated by fluorescence probe of pyrene."}, "[2]": {"system": "MIA PaCa-2 cells", "assay": "Transwell migration assay", "type": "cell-based", "conditions": "for migrated cells (Fig S20): MIA PaCa-2 cells", "method": "Fig. 5 The BIVA effect with enhanced targeting to pancreatic tumor cell for boundaries imaging. a Illustration of BIVA effect: active targeting and assembly/aggregate induced retention (AIR) effect. b Chemical structure of FITC labeling. c 2D and 3D confocal images of M2 with active targeting property and M1 with BIVA effect on MIA PaCa-2 cells after incubation for 1 h. d The distribution of M1 on MIA PaCa-2 cell. e ThT staining of the lysed cell membrane of MIA PaCa-2. f, Illustration of migration inhibition after treated by BIVA probe. g The image of the migrated cells after treatment of PBS (blank), M2, M4, and M1. Scale bar: 100 μm. h The pie diagram of quantitative statistical calculation of the migrated cells (blue) in different groups. The blank control was set as 100% migrated cells.\nIn order to further understand the contribution of the active targeting and AIR effect during locating of the cells, the cell transwell experiment was used to quantitively evaluate interference of the cell migration based on M1, M2, and M4 (Fig. 5f). As expected, untreated cells were easy to migrate to the lower chamber, while the cells treated with active targeting molecule M2 and assembled molecule M4, the migration of cell were reduced. Under the same molar concentration, the M1 treatment group had the most inference on cell migration (Fig. 5g). […] Based on those results, we speculate M1 can be more enriched in the tumor site and form fibers through assembly to inhibit tumor cell migration compared to M2 and M4 which have no ability to target and adhere on the cell membrane.\nTranswell migration assay occurred in chemotaxis chambers containing 24 wells. […] Bottom chambers contained DMEM medium containing 10% FBS. After 24 h of treatment with M1, M2, and M4 (150 μM), we fixed cells using 4% paraformaldehyde and stained with 0.25% crystal violet solution. The stained cells were counted using a microscope.\nSupplementary Fig. 20∣ The quantitative results of the migrated cells after treatment of PBS (blank), M2, […] and\nM1 (Fig 5g). The mean of results of fiveparallel experiments is shown and data were expressed as mean ± SD (n=5).\npM1 = 5.85E-06, pM2 = 5.94E-05, pM4 = 3.16 E-04, Statisticalanalysis: one-way ANOVA followed by post hoc Tukey’s\n(§1) (1 picture or pasted object on this page, not shown here)"}, "[3]": {"system": "MIA PaCa-2 cells", "assay": "Cytotoxicity, CCK-8 assay", "type": "cell-based", "conditions": "CCK-8, 24 h, at high concentration of 300 μM", "method": "The cytotoxicity of M1 and M2 was evaluated using CCK-8 assay in MIA PaCa-2 cells. Cells were seeded into 96-well plates at a density of 5 × 10^4 cells per well and placed in an incubator for 14 h. Subsequently, the sample was diluted into a series of different concentrations (0, 50, 100, 150, 200, 250, 300, and 350 μM) and incubated with cells for 24 h. After that, 10 μL of CCK-8 solution was added to each well and incubated for 2 h. The absorbance of blank wells (Ab), sample wells (As) and control wells (Ac) were measured with a microplate reader at a test wavelength of 450 nm and a reference wavelength of 690 nm. The cell viability rate (%) is equal to (As -Ab) / (Ac -Ab) ×100%. All experiments were repeated in triplicate.\nSupplementary Fig. 21∣ Cellviability assay of Miapaca-2 cells treated with a series concentration of M1 and M2 for 24 h.\nTested by Cell Counting Kit-8 (Beyotime, C0039) The mean of results of six parallel experiments isshown and data were\nexpressed as mean ± SD (n=6).\nas §1"}, "[4]": {"system": "orthotopic pancreatic tumor (MIA PaCa-2)", "assay": "Signal in small orthotopic tumor area versus healthy spleen area", "type": "in vivo", "conditions": "orthotopic pancreatic tumor mice, i.v. 16 mg/kg, 12 h", "method": "To evaluate the imaging property of BIVA probe, the orthotopic pancreatic tumor mice model was built. After intravenous injected M1 and M2 molecules with a dose of 16 mg/kg for 12 h, the mice were sacrificed. […] Then, all the important organs were dissected for ex vivo imaging. […] Upon the individual differences, we validated 6 mice under surgery to induce orthotopic tumor in pancreatic head. […] As known, the FAP-α was a membrane located protein, overexpressed on tumor associate fibroblast cell and pancreatic cell surface."}},
  "data": [
    {"substance": "mPEG-GPAKLVFFGCGRGD [M3, the non-labeling molecule of M1 (no IR783)]", "values": [
      {"measurement": "pyrene I1/I3", "setting": "[1]; conc 100 μM", "result": 1.163},
      {"measurement": "pyrene I1/I3", "setting": "[1]; conc 200 μM", "result": 1.158},
      {"measurement": "pyrene I1/I3", "setting": "[1]; conc 300 μM", "result": 1.141},
      {"measurement": "pyrene I1/I3", "setting": "[1]; conc 400 μM", "result": 1.131},
      {"measurement": "pyrene I1/I3", "setting": "[1]; conc 500 μM", "result": 1.152},
      {"measurement": "pyrene I1/I3", "setting": "[1]; conc 600 μM", "result": 1.067},
      {"measurement": "pyrene I1/I3", "setting": "[1]; conc 700 μM", "result": 1.052},
      {"measurement": "pyrene I1/I3", "setting": "[1]; conc 800 μM", "result": 1.029},
      {"measurement": "pyrene I1/I3", "setting": "[1]; conc 900 μM", "result": 0.978},
      {"measurement": "migrated cells (Fig S20)", "setting": "[2]; averge of groups 1-3", "result": 484.667},
      {"measurement": "migrated cells (Fig S20)", "setting": "[2]; group 1", "result": 483},
      {"measurement": "migrated cells (Fig S20)", "setting": "[2]; group 2", "result": 456},
      {"measurement": "migrated cells (Fig S20)", "setting": "[2]; group 3", "result": 515}
    ]},
    {"substance": "mPEG-GPAKLVFFGC(IR783)GRGD [M1]", "values": [
      {"measurement": "Critical assembly concentration (CAC)", "setting": "[1]; aqueous solution, analyzed based on pyrene fluorescence", "result": ">500", "unit": "µM"},
      {"measurement": "cytotoxicity", "setting": "[3]", "result": "no obvious cytotoxicity"},
      {"measurement": "emigrate (migrated cells relative to blank)", "setting": "[2]; MIA PaCa-2, 150 μM, 24 h, blank control = 1", "result": 0.3109},
      {"measurement": "migrated cells (Fig S20)", "setting": "[2]; averge of groups 1-3", "result": 285.333},
      {"measurement": "migrated cells (Fig S20)", "setting": "[2]; group 1", "result": 285},
      {"measurement": "migrated cells (Fig S20)", "setting": "[2]; group 2", "result": 302},
      {"measurement": "migrated cells (Fig S20)", "setting": "[2]; group 3", "result": 269},
      {"measurement": "fluorescence signal on tumor relative to surrounding spleen tissue (signal-to-background)", "setting": "[4]", "result": "over 9 folds"}
    ]}
  ]
}
